Assay results taken from patent US20250002564A1 (HOSPITAL FOR SICK CHILDREN, published 2025).
Residue numbers refer to the chain shown, from its start. Where two headings read alike, the source gives them in different places.

B1: mAb 254 (antibody, V domains shown)
VH: EVQLLESGGGLVQPGGSLRLSCAASGFTFSSSAMHWVRQAPGKGLEWVSAIGTGGDTYYADSVKGRFTISRDNSKNTLYLQMNSLRAEDTAVYYCAREGDGYNFYFDYWGQGTLVTVSS
VL: DIQMTQSPSSLSASVGDRVTITCRASQGISSYLAWYQQKPGKAPKLLIYDASSLQIGVPSRFSGSGSGTDFTLTISSLQPEDFATYYCLQSYSTPPWTFGQGTKVEIKR
notes: also called IgG 254; Antibody 254
B2: mAb 178 (antibody, V domains shown)
VH: QVQLVQSGAEVKKPGASVKVSCKASGYTFTDYHMHWVRQAPGQGLEWMGWINPNSGGTNYAQKFQGRVTMTRDTSTSTVYMELSSLRSEDTAVYYCARDISSWYEITKFDPWGQGTLVTVSS
VL: EIVMTQSPATLSVSPGERATLSCKASQSVSGTYLAWYQQKPGQAPRLLIYGASTRATGIPARFSGSGSGTEFTLTISSLQSEDFAVYYCLQTHSYPPTFGQGTKVEIKR
notes: also called IgG 178; Antibody 178
B3: mAb 120 (antibody, V domains shown)
VH: QVQLVQSGAEVKKPGASVKVSCKASGYTFTSYDINWVRQAPGQGLEWMGMIDPSGGSTSYAQKFQGRVTMTRDTSTSTVYMELSSLRSEDTAVYYCAKDFGGGTRYDYWYFDLWGRGTLVTVSS
VL: EIVMTQSPATLSVSPGERATLSCRASQSVSSRYLAWYQQKPGQAPRLLIYGASTRATGIPARFSGSGSGTEFTLTISSLQSEDFAVYYCQQYYTTPRTFGQGTRLEIKR
notes: also called IgG 120; Antibody 120
B4: mAb 128 (antibody, V domains shown)
VH: QVQLVQSGAEVKKPGASVKVSCKASGYTFTHYYMHWVRQAPGQGLEWMGIINPSSSSASYSQKFQGRVTMTRDTSTSTVYMELSSLRSEDTAVYYCARDGRYGSGSYPFDYWGQGTLVTVSS
VL: DIQMTQSPSSLSASVGDRVTITCRASQNISRYLNWYQQKPGKAPKLLIYDASNLETGVPSRFSGSGSGTDFTLTISSLQPEDFATYYCQQANGFPPTFGQGTKLEIKR
B5: mAb 46 (antibody, V domains shown)
VH: EVQLLESGGGLVQPGRSLRLSCAASGFTFSSYAMSWVRQAPGKGLEWVSTIYSGGSTYYADSVKGRFTISRDNSKNTLYLQMNSLRAEDTAVYYCARGDSRDAFDIWGQGTMVTVSS
VL: DIQMTQSPSSLSASVGDRVTITCRASQSISSWLAWYQQKPGKAPKLLIYDASNLETGVPSRFSGSGSGTDFTLTISSLQPEDFATYYCQQSYSTPFTFGPGTKVDIKR
notes: also called IgG 46; Antibody 46
B6: mAb 56 (antibody, V domains shown)
VH: QVQLVQSGAEVKKPGASVKVSCKASGYTFTSYGISWVRQAPGQGLEWMGWISAYNGNTNYAQKLQGRVTMTRDTSTSTVYMELSSLRSEDTAVYYCARDIGPIDYWGQGTLVTVSS
VL: B4 VL with N28G, R31S, N34A, E55Q, T56S, G93S, P96S, L104V
notes: also called IgG 56; Antibody 56
B7: mAb 64 (antibody, V domains shown)
VH: EVQLLESGGGLVQPGGSLRLSCAASGFPFSQHGMHWVRQAPGKGLEWVSAIDRSGSYIYYADSVKGRFTISRDNSKNTLYLQMNSLRAEDTAVYYCARDTYGGKVTYFDYWGQGTLVTVSS
VL: B5 VL with S28G, W32H, S91T, F96W, P100Q, D105E
notes: also called IgG 64; Antibody 64
B8: mAb 158 (antibody, V domains shown)
VH: QVQLVQSGAEVKKPGASVKVSCKASGYTFTGYYMHWVRQAPGQGLEWMGWINPLNGGTNFAPKFQGRVTMTRDTSTSTVYMELSSLRSEDTAVYYCARDPGGSYSNDAFDIWGQGTLVTVSS
VL: B4 VL with N28S, T56S, G93S, P96L, Q100G, L104V, E105D
notes: also called IgG 158; Antibody 158
B9: mAb 82 (antibody, V domains shown)
VH: QVQLVQSGAEVKKPGASVKVSCKASGGSFSTSAFYWVRQAPGQGLEWMGWINPYTGGTNYAQKFQGRVTMTRDTSTSTVYMELSSLRSEDTAVYYCARSRALYGSGSYFDYWGQGTLVTVSS
VL: B4 VL with N28V, R31N, N34A, A91S, N92F, G93S, F94P, K103R
notes: also called IgG 82; Antibody 82
B10: mAb 108 (antibody, V domains shown)
VH: QVQLVQSGAEVKKPGASVKVSCKASGYIFSRYAIHWVRQAPGQGLEWMGWMNPISGNTDYAPNFQGRVTMTRDTSTSTVYMELSSLRSEDTAVYYCAKDGSQLAYLVEYFQHWGQGTLVTVSS
VL: B5 VL with S28V, S30T, S31N, W32N, N53T, S93T, T94F, F96Y, P100Q, D105E
B11: mAb 324 (antibody, V domains shown)
VH: QVQLVQSGAEVKKPGASVKVSCKASGGTFNNYGISWVRQAPGQGLEWMGWMNPNSGNTGYAQKFQGRVTMTRDTSTSTVYMELSSLRSEDTAVYYCARVGDYGDYIVSPFDLWGRGTLVTVSS
VL: B5 VL with S30T, S31T, W32Y, A34N, F96P, P100Q, D105E
notes: also called IgG 324; Antibody 324
B12: mAb 349 (antibody, V domains shown)
VH: EVQLLESGGGLVQPGGSLRLSCAASGFTFSNYGMHWVRQAPGKGLEWVSGISSAGSITNYADSVKGRFTISRDNSKNTLYLQMNSLRAEDTAVYYCAGNHAGTTVTSEYFQHWGQGTLVTVSS
VL: B5 VL with A51T, S93T, F96W, P100Q, K103R, V104L, D105E
notes: also called IgG 349; Antibody 349
B13: mAb 160 (antibody, V domains shown)
VH: QVQLVQSGAEVKKPGASVKVSCKASGYTFTGHDMHWVRQAPGQGLEWMGIINPSGGSTSYAQKFQGRVTMTRDTSTSTVYMELSSLRSEDTAVYYCARANSLRYYYGMDVWGQGTMVTVSS
VL: DIQMTQSPSSLSASVGDRVTITCRASQSVSSWLAWYQQKPGKAPKLLIYAASSLQSGVPSRFSGSGSGTDFTLTISSLQPEDFATYYCQQGYTTPYTFGQGTKLEIKR
notes: also called IgG 160; Antibody 160
B14: mAb 52 (antibody, V domains shown)
VH: QVQLVQSGAEVKKPGSSVKVSCKASGYTFTSYGISWVRQAPGQGLEWMGGIIPMFGTTNYAQKFQGRVTITADKSTSTAYMELSSLRSEDTAVYYCARDRGDTIDYWGQGTLVTVSS
VL: DIQMTQSPSSLSASVGDRVTITCRASQGISNNLNWYQQKPGKAPKLLIYAASSLESGVPSRFSGSGSGTDFTLTISSLQPEDFATYYCQQGNGFPLTFGPGTKVDIKR
notes: also called IgG 52; Antibody 52

What was measured:
[1] = molecular target: T1, SARS-CoV-2 receptor binding domain (RBD), wild type, His-tagged (SARS-CoV-2, UniProt P0DTC2 319-541); test: method and format not given
T1 construct: domain: RBD; also called His-tagged RBD; BEI NR52309

[2] = molecular target: T1, SARS-CoV-2 receptor binding domain …; test: method and format not given; remark: listed apart in the source
[3] = molecular target: T1, SARS-CoV-2 receptor binding domain …; test: BLI competition on His-tagged RBD, after 1st Ab 46
[4] = molecular target: T1, SARS-CoV-2 receptor binding domain …; test: BLI competition on His-tagged RBD, after 1st Ab 52
[5] = molecular target: T1, SARS-CoV-2 receptor binding domain …; test: BLI competition on His-tagged RBD, after 1st Ab 80
[6] = molecular target: T1, SARS-CoV-2 receptor binding domain …; test: BLI competition on His-tagged RBD, after 1st Ab 82
[7] = molecular target: T1, SARS-CoV-2 receptor binding domain …; test: BLI competition on His-tagged RBD, after 1st Ab 236
[8] = molecular target: T1, SARS-CoV-2 receptor binding domain …; test: BLI competition on His-tagged RBD, after 1st Ab 298
[9] = molecular target: T1, SARS-CoV-2 receptor binding domain …; test: BLI competition on His-tagged RBD, after 1st Ab 324

Binder | Kd [1] | Kd [2] | RBD binding of 2nd Ab after 1st Ab (heat map) [3] | RBD binding of 2nd Ab after 1st Ab (heat map) [4] | RBD binding of 2nd Ab after 1st Ab (heat map) [5] | RBD binding of 2nd Ab after 1st Ab (heat map) [6] | RBD binding of 2nd Ab after 1st Ab (heat map) [7] | RBD binding of 2nd Ab after 1st Ab (heat map) [8] | RBD binding of 2nd Ab after 1st Ab (heat map) [9]
B1 | 127 nM | 127 nM | – | – | – | – | – | – | –
B2 | 72 nM | 72 nM | – | – | – | – | – | – | –
B3 | 24 nM | 24 nM | – | – | – | – | – | – | –
B4 | 57 nM | 57 nM | – | – | – | – | – | – | –
B5 | 83 nM | 83 nM | 0.2 | 0.2 | 1.3 | 1.2 | 1.7 | 1.7 | 1.7
B6 | 23 nM | 23 nM | – | – | – | – | – | – | –
B7 | 97 nM | 97 nM | – | – | – | – | – | – | –
B8 | 172 nM | 172 nM | – | – | – | – | – | – | –
B9 | 206 nM | 206 nM | 1.4 | 0.6 | 0.6 | 0.4 | 0.6 | 0.5 | 0.8
B10 | 72 nM | 72 nM | – | – | – | – | – | – | –
B11 | 111 nM | 111 nM | 1.2 | 1 | 0.1 | 0.2 | 0.3 | 0.2 | 0.4
B12 | 74 nM | 74 nM | – | – | – | – | – | – | –
B13 | 7.7 nM | 7.7 nM | – | – | – | – | – | – | –
B14 | – | – | 0.5 | 0.4 | 1.3 | 0.8 | 1.5 | 1.4 | 1.5
